From patent US20220112558

Biological target: 14-3-3 proteins

B1: ARAF mutant (ARAF-S214P), full-length, with two FLAG tags and two STREP tags, expressed in HEK293T cells (protein)
chain: DYKDDDDKDYKDDDDKWSHPQFEKWSHPQFEKMEPPRGPPANGAEPSRAVGTVKVYLPNKQRTVVTVRDGMSVYDSLDKALKVRGLNQDCCVVYRLIKGRKTVTAWDTAIAPLDGEELIVEVLEDVPLTMHNFVRKTFFSLAFCDFCLKFLFHGFRCQTCGYKFHQHCSSKVPTVCVDMSTNRQQFYHSVQDLSGGSRQHEAPSNRPLNELLTPQGPSPRTQHCDPEHFPFPAPANAPLQRIRSTPTPNVHMVSTTAPMDSNLIQLTGQSFSTDAAGSRGGSDGTPRGSPSPASVSSGRKSPHSKSPAEQRERKSLADDKKKVKNLGYRDSGYYWEVPPSEVQLLKRIGTGSFGTVFRGRWHGDVAVKVLKVSQPTAEQAQAFKNEMQVLRKTRHVNILLFMGFMTRPGFAIITQWCEGSSLYHHLHVADTRFDMVQLIDVARQTAQGMDYLHAKNIIHRDLKSNNIFLHEGLTVKIGDFGLATVKTRWSGAQPLEQPSGSVLWMAAEVIRMQDPNPYSFQSDVYAYGVVLYELMTGSLPYSHIGCRDQIIFMVGRGYLSPDLSKISSNCPKAMRRLLSDCLKFQREERPLFPQILATIELLQRSLPKIERSASEPSLHRTQADELPACLLSAARLVP
activation of ERK1/2, as measured by increased phosphorylation: significantly greater activation of ERK1/2, as measured by increased phosphorylation, compared with HEK293T cells expressing wildtype (WT) ARAF
